In the DeepSol protein solubility set:

Assay: soluble on expression in E. coli; label from the status in PepcDB or PDB records

Row | Sequence | soluble on expression in E. coli
1 | MKYKHLILSLSLIMLGPLAHAEEIGSVDTVFKMIGPDHKIVVEAFDDPDVKNVTCYVSRAKTGGIKGGLGLAEDTSDAAISCQQVGPIELSDRIKNGKAQGEVVFKKRTSLVFKSLQVVRFYDAKRNALAYLAYSDKVVEGSPKNAISAVPVMPWRQ | soluble
2 | MTKVTREEVEHIANLARLQISPEETEEMANTLESILDFAKQNDSADTEGVEPTYHVLDLQNVLREDKAIKGIPQELALKNAKETEDGQFKVPTIMNEEDA | soluble
3 | GPGSMWDVVSRVGKAAYRTAALTGLAAGTEQPPYPCALPLKTVSSDSDVDSMREVLNSAFDASKDMLENNGEHQWQLVDYVDPEEGGDLHLFTRPRVGPFNFVKATLSFMGVSPQNVLDTMHSDNADDRKRYSANLSHFEVLAKPMAGCAIELHKYWAPPPVAGREFVFAAEKKYVESENVYYVHGCSIDYTPQMETSKGFVRAACLWAWKLMPVGDNTLATYVSCMNPRGWTPPFIFGWLKSEIGKELVACRRVLYGETVKVERTTLQGMGLSDEVNNLTDEERKRMSEGEPQPEAS | soluble
4 | MIYIGLPQWSHPKWVRLGITSLEEYARHFNCVEGNTTLYALPKPEVVLRWREQTTDDFRFCFKFPATISHQAALRHCDDLVTEFLTRMSPLAPRIGQYWLQLPATFGPRELPALWHFLDSLPGEFNYGVEVRHPQFFAKGEEEQTLNRGLHQRGVNQVILDSRPVHAARPHSEAIRDAQRKKPKVPVHAVLTATNPLIRFIGSDDMTQNRELFQVWLQKLAQWHQTTTPYLFLHTPDIAQAPELVHTLWEDLRKTLPEIGAVPAIPQQSSLF | soluble
5 | SISKEEILKPIWYAFTALDLDRNGKVSKSQLKVLSHNLCTILKIPHNTSALEEHFKDDDEGPVSTQGYMPYLNTFILSKIQPNFDFVELNKMCWTLSAPKHINTMNLLMSEKDAFRVWCIFNFLSEDKYPLTIVTEELEYFLRKLLTAMGCSWNEGRFEDYKMHLNAKTWKHKVSKHEGLLKLVQPGGKTPSKMTNWGQAAFTESELNELEKMWQVNKNRSEEE | soluble
6 | MSLTARRFLNELADLYGVATSYTDYKGAHIEVSDDTLVKILRALGVNLDTSNLPNDDAIQRQIALFHDREFTRPLPPSVVAVEGDELVFPVHVHDGSPADVHIELEDGTQRDVSQVENWTAPREIDGIRWGEASFKIPGDLPLGWHKLHLKSNERSAECGLIITPARLSTADKYLDSPRSGVMAQIYSVRSTLSWGMGDFNDLGNLASVVAQDGADFLLINPMHAAEPLPPTEDSPYLPTTRRFINPIYIRVEDIPEFNQLEIDLRDDIAEMAAEFRERNLTSDIIERNDVYAAKLQVLRAIFEMPRSSEREANFVSFVQREGQGLIDFATWCADRETAQSESVHGTEPDRDELTMFYMWLQWLCDEQLAAAQKRAVDAGMSIGIMADLAVGVHPGGADAQNLSHVLAPDASVGAPPDGYNQQGQDWSQPPWHPVRLAEEGYIPWRNLLRTVLRHSGGIRVDHVLGLFRLFVMPRMQSPATGTYIRFDHNALVGILALEAELAGAVVIGEDLGTFEPWVQDALAQRGIMGTSILWFEHSPSQPGPRRQEEYRPLALTTVTTHDLPPTAGYLEGEHIALRERLGVLNTDPAAELAEDLQWQAEILDVAASANALPAREYVGLERDQRGELAELLEGLHTFVAKTPSALTCVCLVDMVGEKRAQNQPGTTRDMYPNWCIPLCDSEGNSVLIESLRENELYHRVAKASKRDEGHHHHHH | soluble
7 | MRNIMAGFLIFLSSAAYADINLYGPGGPHTALLDAAKLYAEKTGIIVNVHYGPQNKWNEDAKKNADILFGASEQSALAIIRDHKDSFSEKDIQPLYLRKSILLVKKGNPKNIRSIDDLTRPGIGVIVNDGGGTSNTSGTGVWEDIAGRKGNIETVAAIRKNIILYAPNSGTARKALENQPGADVWITWADWAASNPEIGDVVEIAPDYVIWRDMNITVRQDANDETRRFAEWLQTDEAAPAFKKYGWTRKGT | not soluble
8 | MSNPILTSTLIILRGNSSSGKTTIAKQLQEHFGQGTLLVSQDVVRRDMLRVHDTMGNLSHDLLFEITKYGKGKCEFVILEGILNSHRYGEMLKELIRYFDENAFAYYFDLSLEETIRRHNTRDKRHEFGEDSLQKWYNPHDTIKVATETIFTDNFTQKDIFDAILNDVAIEKQALEHHHHHH | soluble
9 | MSHSVPNALMTGADYLDSLRDGRQVYLNGERVADVTRHRAFRNACRSIAGLYDGLHGEQRDVLTRVDAQGRRSHRFFTPAQNAEDLLGAREAIGCWSRMTYGFMGRTPDYKAAFMSGLEAGAGFYGDYRHNACAWHRAFADRGLFLNHAIINPPLDRSKAIHEMRDVFVHVERETDQGIVVSGAKMLATGSAITNATFVAPVASAQMEAGKAEDFAVVFFARMDNPGLRLMCRPSYEERASSPFDYPLSSRFDENDSVLLFDKALIPWEDVLVYRDLRRATGFYAESGFANLYNFQSGIRLGVKLELMIGLLSLGVRANGTQSFRGIQAALGELIALQHLLQALTTAMARDPERNAAGSAVPRLEYANALRIQVPQIWKRVRELLESALGGAPLVTVSGAADLRDGEARRLVDSYYRGAELEPEQRLKLFKLIWDATGSEFGARHAVYESHYSGNAEQIRLDSLAWASRRGHLAYCEAMVQRCMADYDIHGWLRGPWQHD | not soluble
10 | LTVGDWLDSIRMGRYRDHFAAGGYSSLGMVLRMNAQDVRALGITLMGHQKKILGSIQTMRAQLTSTQG | soluble
11 | MVAQKAYVSTPTLIDYLSRSAIKLLDIHSILLKVREEAMGGEPNLLRQIDSTKKQLDEISHALILEYRKRQENERFLKQILLSISDQLFSLNNGFKETGRLFFQEIRMLQSQMQCFYEGKERQYLLSEQESSYSPSKIDEVIKQLQKAREKLIVESPHLFEKEC | not soluble
12 | MRKLTAMLVASSLALGAAGLAHANEAPKGPGSEHKMMMKEGREHRGMMGSDAMFKELNLTEAQKQQIKDIMKDSREKMHKAMQDDRRDMHSLVASDTFDAAKAQAQLDKADAAHKARMLSGLETKNKIYNVLTPEQKKQYNDSFEKRLTQPPKPDGKPVPAELEHHHHHH | soluble
13 | MDFNLNDEQELFVAGIRELMASENWEAYFAECDRDSVYPERFVKALADMGIDSLLIPEEHGGLDAGFVTLAAVWMELGRLGAPTYVLYQLPGGFNTFLREGTQEQIDKIMAFRGTGKQMWNSAITEPGAGSDVGSLKTTYTRRNGKIYLNGSKCFITSSAYTPYIVVMARDGASPDKPVYTEWFVDMSKPGIKVTKLEKLGLRMDSCCEITFDDVELDEKDMFGREGNGFNRVKEEFDHERFLVALTNYGTAMCAFEDAARYANQRVQFGEAIGRFQLIQEKFAHMAIKLNSMKNMLYEAAWKADNGTITSGDAAMCKYFCANAAFEVVDSAMQVLGGVGIAGNHRISRFWRDLRVDRVSGGSDEMQILTLGRAVLKQYR | soluble
14 | MQLQLICEDPSQQSHLDELAARWQLSHTDESDFALVLTAERLELRKVDEPKLGAIFVDLIGGAVGHRRKFGGGKGQAIAKAAGLNKGATPTVLDGTAGLGRDAFVLASLGCKVQMVERHPVVAALLDDGLARAKQDPEIGTWVSERMSLIHASSHDALDQLAQDREFVKPDVVYLDPMYPHPENKKKSALVKKEMRVFQSLVGADLDADGLLEPALALATKRVVVKRPDYANWLNEQKPSMAIETKKNRFDVYVKASMALEHHHHHH | soluble
15 | MAHHHHHHMRVASFCLPLHLLSFGAQARGCFRHSTGGSSSVFCAARPFRLSHTMAASACSSAVHLDNFRLLAAGHDATHAAPSSAPLTAPISFSLTFHFQRYDGADFESFISSLGVSVDFVADVASEQTTLTLLPLTPVSGPWARRDTAAANGAFLMAASASDSSTSSSDYAAGAPLDGAAGAAPGMMYQLRVYLSDFRALEKVQLKHLLQVSMMHVRLAHLGTSDGVGNSDSSDPRTEERSVAAWNVIWRVRRNPQNEQELIRTVLDPLA | not soluble
16 | MGSDKIHHHHHHMPLKRLNRFRLWLWETPPVYEIRGRCFQIKERLCGYPELHRAFRERTGYELSLHHPCTFHHKITVLKIRRSPRIFVRAVDKIFAKELALEWAHQHGFRLYVARTLAVTKDVSEIRWHELPQRFLIKATHRSGANLFVDQSQAFDLDALRVQSRAWLQYPYGVYKHEWAYWPVPRRLLIEELIEPVDGEELVDYKFHMSRGRCLMIQVNQGLRSGKRTIAILHPSWQLQPVKWVYPQPEVIPQRPDTFYEMLEMASAFSREFPYLRVDLYSVKQVMSGVMVSRVMFGEFTFFPGSGSESVDPFAFDLAIGKEIKL | not soluble
